Substitutions are numbered along the chain they refer to. A value given as a limit tells only on which side of the number the result lay.

In test [1] the target is T1, biotin-labeled active hMMP-9(cat)_FLAG_Avi (human, UniProt P14780 107-449, biotin on the Avi tag (biotin ligase BirA)).
T1 construct: His tag and propeptide removed; also called active human MMP-9 enzyme active domain
The test is described as follows: ELISA, biotinylated target on streptavidin plate, anti-S-tag HRP detection. As for the experimental part:
(§1) The biotin-labeled pro-hMMP-9(cat)_His6_FLAG_Avi obtained in (2-1-6) or biotin-labeled active hMMP-9(cat)_FLAG_Avi obtained in (2-1-7) was immobilized on a streptavidin coated 96-well plate (Thermo Fisher Scientific). After blocking with 3% BSA, 1 to 1,000 nM of the binding peptides were added, and reacted at room temperature for 1.5 hours. After washing, goat anti-S-Tag HRP conjugated (Bethyl Laboratories, Inc.) was added, and reacted at room temperature for 1 hour. After washing, substrates of ELISA POD substrate A.B.T.S kit (Nacalai Tesque Inc.) were added, and reacted at room temperature.

Test [2] addresses T2, biotin-labeled pro-hMMP-9(cat)_His6_FLAG_Avi (human, UniProt P14780 20-449, biotin on the Avi tag (biotin ligase BirA)).
T2 construct: Secretion signal Met1-Ala19 left out; also called pro human MMP-9 enzyme active domain; not shown: His tag (His6 by the construct's name)
Described as above. The procedure:
as §1

Test [3] deals with T3, hMMP-9(cat)_E402Q_His6 (human, UniProt P14780 107-449).
T3 construct: also called human MMP-9 enzyme active domain E402Q mutant; human MMP-9 E402Q mutant; not shown: His tag (His6 by the construct's name)
The test is described as follows: size exclusion chromatography of the mixture. As for the experimental part: After the reaction, 10 μl of the reaction solution was analyzed by size exclusion chromatography. The chromatographic conditions were as follows.

Test [4] deals with active hMMP-9(cat)_V398A (human, UniProt P14780 107-449). The test is described as follows: cell-based or functional assay.
The target in test [5] is active hMMP-9(cat)_M422I (human, UniProt P14780 107-449). The test is described as follows: cell-based or functional assay.
The target of test [6] is active hMMP-9(cat)_L397A (human, UniProt P14780 107-449). The test is described as follows: cell-based or functional assay.
The target in test [7] is active hMMP-9(cat)_P193A (human, UniProt P14780 107-449). The experiment in a line: cell-based or functional assay.
Test [8] addresses active hMMP-9(cat)_Y179A (human, UniProt P14780 107-449). The test is described as follows: cell-based or functional assay.
Test [9] addresses active hMMP-9(cat)_Y393A (human, UniProt P14780 107-449). The experiment in a line: cell-based or functional assay.
Test [10] concerns the target active hMMP-9(cat)_R424T (human, UniProt P14780 107-449). The experiment in a line: cell-based or functional assay.
Test [11] addresses active hMMP-9(cat)_F192A (human, UniProt P14780 107-449). The experiment in a line: cell-based or functional assay.
Test [12] addresses active hMMP-9(cat) (human, UniProt P14780 107-449). The test is described as follows: cell-based or functional assay.
Test [13] has as its target active hMMP-9(cat)_D185A (human, UniProt P14780 107-449). The experiment in a line: cell-based or functional assay.
For test [14], the target named is active hMMP-9(cat)_Y423A (human, UniProt P14780 107-449). The test is described as follows: cell-based or functional assay.
Test [15] concerns the target active hMMP-9(cat)_F110A (human, UniProt P14780 107-449). The test is described as follows: cell-based or functional assay.
Test [16] concerns the target active hMMP-9(cat)_Y420A (human, UniProt P14780 107-449). The experiment in a line: cell-based or functional assay.
For test [17], the target named is active hMMP-9(cat)_L187A (human, UniProt P14780 107-449). The experiment in a line: cell-based or functional assay.
In test [18] the target is active hMMP-9(cat)_Q199G (human, UniProt P14780 107-449). The test is described as follows: cell-based or functional assay.
active hMMP-9(cat)_Q199G, sequence (P14780 107-449 Q199G): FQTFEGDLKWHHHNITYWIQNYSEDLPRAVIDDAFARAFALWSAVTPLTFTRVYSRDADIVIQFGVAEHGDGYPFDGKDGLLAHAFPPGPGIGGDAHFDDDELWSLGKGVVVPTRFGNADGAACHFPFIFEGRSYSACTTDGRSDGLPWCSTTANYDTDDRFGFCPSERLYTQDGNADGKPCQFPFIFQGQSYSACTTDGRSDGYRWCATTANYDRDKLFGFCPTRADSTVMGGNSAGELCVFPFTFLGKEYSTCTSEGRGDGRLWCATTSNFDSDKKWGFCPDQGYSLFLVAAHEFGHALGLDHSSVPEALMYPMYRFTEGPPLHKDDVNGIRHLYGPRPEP

T2 sequence (P14780 other isoform, or with tags, fused parts or gaps): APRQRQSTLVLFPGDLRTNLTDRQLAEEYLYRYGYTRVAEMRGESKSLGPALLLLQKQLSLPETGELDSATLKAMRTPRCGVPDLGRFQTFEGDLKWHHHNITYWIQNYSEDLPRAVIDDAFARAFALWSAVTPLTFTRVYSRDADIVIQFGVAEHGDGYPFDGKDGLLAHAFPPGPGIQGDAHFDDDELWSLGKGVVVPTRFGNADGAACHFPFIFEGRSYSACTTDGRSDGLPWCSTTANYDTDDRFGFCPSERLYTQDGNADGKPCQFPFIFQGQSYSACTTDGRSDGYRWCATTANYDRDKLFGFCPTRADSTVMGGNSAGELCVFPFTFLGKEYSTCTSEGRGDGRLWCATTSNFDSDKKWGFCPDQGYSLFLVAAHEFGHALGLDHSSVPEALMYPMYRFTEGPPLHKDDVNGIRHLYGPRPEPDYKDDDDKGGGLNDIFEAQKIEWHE
T1 sequence (P14780 other isoform, or with tags, fused parts or gaps): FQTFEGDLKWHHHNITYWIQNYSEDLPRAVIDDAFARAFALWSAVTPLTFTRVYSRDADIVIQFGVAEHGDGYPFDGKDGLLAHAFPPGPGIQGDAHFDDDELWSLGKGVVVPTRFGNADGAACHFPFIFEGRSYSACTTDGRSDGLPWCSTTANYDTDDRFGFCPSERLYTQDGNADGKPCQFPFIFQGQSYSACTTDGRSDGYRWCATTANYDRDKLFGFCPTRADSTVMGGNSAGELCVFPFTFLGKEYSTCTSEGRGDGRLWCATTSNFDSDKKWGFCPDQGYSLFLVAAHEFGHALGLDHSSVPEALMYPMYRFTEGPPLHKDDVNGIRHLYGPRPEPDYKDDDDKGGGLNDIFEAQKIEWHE
active hMMP-9(cat)_F192A, sequence (P14780 107-449 F192A): as the sequence (P14780 107-449 Q199G) above, with F86A, G93Q counted along it
active hMMP-9(cat)_Y423A, sequence (P14780 107-449 Y423A): as the sequence (P14780 107-449 Q199G) above, with G93Q, Y317A counted along it
active hMMP-9(cat)_L397A, sequence (P14780 107-449 L397A): as the sequence (P14780 107-449 Q199G) above, with G93Q, L291A counted along it
active hMMP-9(cat), sequence (P14780 107-449): as the sequence (P14780 107-449 Q199G) above, with G93Q counted along it
active hMMP-9(cat)_M422I, sequence (P14780 107-449 M422I): as the sequence (P14780 107-449 Q199G) above, with G93Q, M316I counted along it
T3 sequence (P14780 107-449 E402Q): as the sequence (P14780 107-449 Q199G) above, with G93Q, E296Q counted along it
active hMMP-9(cat)_Y179A, sequence (P14780 107-449 Y179A): as the sequence (P14780 107-449 Q199G) above, with Y73A, G93Q counted along it
active hMMP-9(cat)_Y393A, sequence (P14780 107-449 Y393A): as the sequence (P14780 107-449 Q199G) above, with G93Q, Y287A counted along it
active hMMP-9(cat)_V398A, sequence (P14780 107-449 V398A): as the sequence (P14780 107-449 Q199G) above, with G93Q, V292A counted along it
active hMMP-9(cat)_L187A, sequence (P14780 107-449 L187A): as the sequence (P14780 107-449 Q199G) above, with L81A, G93Q counted along it
active hMMP-9(cat)_P193A, sequence (P14780 107-449 P193A): as the sequence (P14780 107-449 Q199G) above, with P87A, G93Q counted along it
active hMMP-9(cat)_D185A, sequence (P14780 107-449 D185A): as the sequence (P14780 107-449 Q199G) above, with D79A, G93Q counted along it
active hMMP-9(cat)_F110A, sequence (P14780 107-449 F110A): as the sequence (P14780 107-449 Q199G) above, with F4A, G93Q counted along it
active hMMP-9(cat)_Y420A, sequence (P14780 107-449 Y420A): as the sequence (P14780 107-449 Q199G) above, with G93Q, Y314A counted along it
active hMMP-9(cat)_R424T, sequence (P14780 107-449 R424T): as the sequence (P14780 107-449 Q199G) above, with G93Q, R318T counted along it

B1: wild type SPINK2 (other)
chain: GSGMKETAAAKFERQHMDSPDLGTDDDDKAMADIGSANSDPQFGLFSKYRTPNCSQYRLPGCPRHFNPVCGSDMSTYANECTLCMKIREGGHNIKIIRNGPCGASAAA
notes: also called WT; human SPINK2
On to B1, for which the binding result in test [1] and in test [2] was “no binding (tested: 1 to 1,000 nM)” each time.

B2: active MMP-9-binding peptide M91011 (designed binder)
chain: GSGMKETAAAKFERQHMDSPDLGTDDDDKAMADIGSANSDPQFGLFSKYRTPNCMMYKYAQCSHKSQPVCGSDMSTYANECTLCMKIREGGHNIKIIRNGPCGASAAA
notes: SPINK2 mutant as prepared in (1-2): Stag+linker 1 at the N-terminal, C-terminal 6-mer at the C-terminal
B2: the binding result in test [3] is on record as “no binding (tested: 75 µM peptide with 25 µM target)”; in [2], “no binding (tested: 1 µM)”. For the same molecule, the “IC50 of enzyme inhibition relative to the wild type” value in test [4] was 4.8 times; in test [5], 2.6 times; in test [6], 3.5 times; in test [7], 6.5 times; in test [8] it was 4.9 times; in test [9], over 57.6 times. Moreover, the “IC50 of enzyme inhibition relative to the wild type” value in test [10] is 2.7 times; in test [11], 5 times; in test [13] it was 19 times; in [14], over 20 times. Further, the “IC50 of inhibition of substrate peptide degradation” value in test [12] is 17 nM.

B3: active MMP-9-binding peptide M91005 (designed binder)
chain: B1 chain with S55R, Q56K, Y57R, R58G, L59G, G61S, P63Q, R64M, H65S, F66Y
notes: as for B2
For the molecule B3, the binding result was “no binding (tested: 75 µM peptide with 25 µM target)” in [3] and “no binding (tested: 1 µM)” in test [2]. The “IC50 of enzyme inhibition relative to the wild type” value in test [4] stood at 2.2 times; in test [5], 2.6 times; in test [15], 4 times; in [6], 2.2 times; in test [16], 3.1 times; in [8], 3.2 times. Moreover, the “IC50 of enzyme inhibition relative to the wild type” value in [9] is 2.7 times; in test [17], 6.7 times; in test [18], 2.3 times; in [11], over 57.8 times; in [14] it was 13.2 times. The “IC50 of inhibition of substrate peptide degradation” value in [12] came out at 17 nM.

B4: active MMP-9-binding peptide M91002 (designed binder)
chain: B1 chain with S55R, Q56T, Y57G, L59G, G61A, P63Q, R64M, H65G, N67Q
notes: as for B2
On to B4, for which the binding result in [1] is given as “binds”; in test [2], “no binding (tested: 1 µM)”.

B5: active MMP-9-binding peptide M91001 (designed binder)
chain: GSGMKETAAAKFERQHMDSPDLGTDDDDKAMADIGSANSDPQFGLFSKYRTPNCQRGIGPSCQMSYKPVCGSDMSTYANECTLCMKIREGGHNIKIIRNGPCGASAAA
notes: as for B2
For B5, the binding result in [1] is listed as “binds”; in test [2], “no binding (tested: 1 µM)”.

B6: active MMP-9-binding peptide M91010 (designed binder)
chain: B5 chain with Q55R, R56K, G57V, I58G, G59E, S61A, Y66F, K67N
notes: as for B2
Consider B6, for which the binding result in test [1] is reported as “binds”; in test [2], “no binding (tested: 1 µM)”.

B7: active MMP-9-binding peptide M91004 (designed binder)
chain: B5 chain with Q55R, R56Q, G57R, I58K, S65A, Y66F, K67Q
notes: as for B2
Regarding B7, the binding result in test [1] is “binds”; in test [2] it was “no binding (tested: 1 µM)”.

B8: active MMP-9-binding peptide M91014 (designed binder)
chain: B2 chain with M55V, S66Y, Q67K
notes: as for B2
For B8, the binding result in test [1] was “binds”; in [2], “no binding (tested: 1 µM)”.

B9: active MMP-9-binding peptide M91012 (designed binder)
chain: B5 chain with Q55R, R56V, G57R, I58G, Y66F, K67N
notes: as for B2
Take B9: the binding result in [1] is listed as “binds”; in [2], “no binding (tested: 1 µM)”.

The values above are taken from patent US20200231654A1 (Daiichi Sankyo, published 2020).
